Reference: patent US20060058231A1 (Xencor, published 2006)
Where a chain is given by its changes, count along the chain named.

T1: BMPRII receptor-Fc fusion (UniProt Q13873 27-151, limits assumed)
T1 construct: BMP receptor-Fc fusion used at 5 ug/mL
T1 sequence (looked up): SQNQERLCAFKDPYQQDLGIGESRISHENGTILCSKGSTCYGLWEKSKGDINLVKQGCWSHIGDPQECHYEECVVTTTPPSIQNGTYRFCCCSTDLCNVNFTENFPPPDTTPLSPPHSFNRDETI

T2: BMPRIb receptor-Fc fusion (UniProt O00238 14-126)
T2 construct: BMP receptor-Fc fusion used at 5 ug/mL; also called ALK-6
T2 sequence (looked up): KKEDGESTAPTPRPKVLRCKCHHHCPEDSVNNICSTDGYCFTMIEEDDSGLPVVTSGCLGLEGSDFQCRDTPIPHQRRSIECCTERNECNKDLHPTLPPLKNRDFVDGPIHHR

B1: BMP-7 variant I94Q (ligand)
chain: STGGKQRSQNRSKTPKNQEALRMASVAENSSSDQRQACKKHELYVSFRDLGWQDWIIAPEGYAAYYCEGECAFPLNSYMNATNHAIVQTLVHFQNPETVPKPCCAPTQLNAISVLYFDDSSNVILKKYRNMVVRACGCH
notes: In conditioned media; numbering on mature BMP-7
B2: BMP-7 variant M23N (ligand)
chain: B1 chain with M23N, Q94I
notes: as for B1
B3: BMP-7 variant N76T (ligand)
chain: B1 chain with N76T, Q94I
notes: as for B1
B4: BMP-7 variant L90T (ligand)
chain: B1 chain with L90T, Q94I
notes: as for B1
B5: BMP-7 variant N76A (ligand)
chain: B1 chain with N76A, Q94I
notes: as for B1
B6: BMP-7 variant N76D (ligand)
chain: B1 chain with N76D, Q94I
notes: as for B1
B7: BMP-7 variant K39A (ligand)
chain: B1 chain with K39A, Q94I
notes: as for B1
B8: BMP-7 variant Q53G (ligand)
chain: B1 chain with Q53G, Q94I
notes: as for B1
B9: BMP-7 variant L90E (ligand)
chain: B1 chain with L90E, Q94I
notes: as for B1
B10: BMP-7 variant L21R (ligand)
chain: B1 chain with L21R, Q94I
notes: as for B1
B11: BMP-7 variant K126Q (ligand)
chain: B1 chain with Q94I, K126Q
notes: as for B1
B12: BMP-7 variant L90P (ligand)
chain: B1 chain with L90P, Q94I
notes: as for B1
B13: BMP-7 variant K126E (ligand)
chain: B1 chain with Q94I, K126E
notes: as for B1
B14: BMP-7 variant L21G (ligand)
chain: B1 chain with L21G, Q94I
notes: as for B1
B15: BMP-7 variant K39N (ligand)
chain: B1 chain with K39N, Q94I
notes: as for B1
B16: BMP-7 variant N76S (ligand)
chain: B1 chain with N76S, Q94I
notes: as for B1
B17: BMP-7 variant L90G (ligand)
chain: B1 chain with L90G, Q94I
notes: as for B1
B18: BMP-7 variant M23S (ligand)
chain: B1 chain with M23S, Q94I
notes: as for B1
B19: BMP-7 variant Q53E (ligand)
chain: B1 chain with Q53E, Q94I
notes: as for B1
B20: BMP-7 variant N76Y (ligand)
chain: B1 chain with N76Y, Q94I
notes: as for B1
B21: BMP-7 variant Q53D (ligand)
chain: B1 chain with Q53D, Q94I
notes: as for B1
B22: BMP-7 variant L21D (ligand)
chain: B1 chain with L21D, Q94I
notes: as for B1
B23: BMP-7 variant Q53K (ligand)
chain: B1 chain with Q53K, Q94I
notes: as for B1
B24: BMP-7 variant K39S (ligand)
chain: B1 chain with K39S, Q94I
notes: as for B1
B25: BMP-7 variant L90H (ligand)
chain: B1 chain with L90H, Q94I
notes: as for B1
B26: BMP-7 variant L21N (ligand)
chain: B1 chain with L21N, Q94I
notes: as for B1

Target: T3, BMPRIa receptor-Fc fusion (UniProt P36894 24-152, limits assumed)
T3 construct: also called ALK-3
T3 sequence (P36894 24-152 limits assumed): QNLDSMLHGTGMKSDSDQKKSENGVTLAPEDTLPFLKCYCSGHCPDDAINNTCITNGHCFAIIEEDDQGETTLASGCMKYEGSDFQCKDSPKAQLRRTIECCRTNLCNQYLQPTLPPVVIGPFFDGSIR
Experiment: ELISA-like plate assay, captured BMP-7 from conditioned media, receptor-Fc detection

Binder	BMPRIa binding (relative to wild type = 1.0)
B1	0.74 relative to wild type
B2	0.98 relative to wild type
B3	0.94 relative to wild type
B4	0.48 relative to wild type
B5	0.79 relative to wild type
B6	0.84 relative to wild type
B7	3.48 relative to wild type
B8	3.7 relative to wild type
B9	0.2 relative to wild type
B10	0.83 relative to wild type
B11	0.46 relative to wild type
B12	0.46 relative to wild type
B13	0.23 relative to wild type
B14	2.53 relative to wild type
B15	1.98 relative to wild type
B16	0.76 relative to wild type
B17	0.55 relative to wild type
B18	0.88 relative to wild type
B19	2.3 relative to wild type
B20	0.46 relative to wild type
B21	2.2 relative to wild type
B22	1.01 relative to wild type
B23	0.7 relative to wild type
B24	2.77 relative to wild type
B25	0.36 relative to wild type
B26	1.57 relative to wild type

Target: T1, BMPRII receptor-Fc fusion
Experiment: as above

Binder	BMPRII binding (relative to wild type = 1.0)
B1	1.32 relative to wild type
B2	0.9 relative to wild type
B3	0.97 relative to wild type
B4	0.29 relative to wild type
B5	0.95 relative to wild type
B6	0.87 relative to wild type
B7	1.51 relative to wild type
B8	1.37 relative to wild type
B9	0.18 relative to wild type
B10	0.66 relative to wild type
B11	0.28 relative to wild type
B12	0.17 relative to wild type
B13	0 relative to wild type
B14	2.3 relative to wild type
B15	0.99 relative to wild type
B16	0.98 relative to wild type
B17	0.28 relative to wild type
B18	2.41 relative to wild type
B19	0.72 relative to wild type
B20	0.6 relative to wild type
B21	1.01 relative to wild type
B22	0.94 relative to wild type
B23	0.14 relative to wild type
B24	1.37 relative to wild type
B25	0.2 relative to wild type
B26	1.73 relative to wild type

Target: T4, ActRIIa receptor-Fc fusion (UniProt P27037 20-134, limits assumed)
T4 construct: BMP receptor-Fc fusion used at 5 ug/mL
T4 sequence (P27037 20-134 limits assumed): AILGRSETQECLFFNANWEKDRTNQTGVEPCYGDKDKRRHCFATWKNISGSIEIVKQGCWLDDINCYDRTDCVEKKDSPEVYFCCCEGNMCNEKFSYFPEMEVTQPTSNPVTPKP
Experiment: as above

Binder	ActRIIa binding (relative to wild type = 1.0)
B1	1.1 relative to wild type
B2	0.94 relative to wild type
B3	1.11 relative to wild type
B4	0.66 relative to wild type
B5	0.96 relative to wild type
B6	1.13 relative to wild type
B7	1.06 relative to wild type
B8	0.99 relative to wild type
B9	0.24 relative to wild type
B10	0.84 relative to wild type
B11	0.81 relative to wild type
B12	0.75 relative to wild type
B13	0.26 relative to wild type
B14	1.5 relative to wild type
B15	1.08 relative to wild type
B16	0.99 relative to wild type
B17	0.87 relative to wild type
B18	2.2 relative to wild type
B19	0.98 relative to wild type
B20	0.92 relative to wild type
B21	0.89 relative to wild type
B22	0.94 relative to wild type
B23	0.73 relative to wild type
B24	1.04 relative to wild type
B25	0.47 relative to wild type
B26	1.03 relative to wild type

Target: T2, BMPRIb receptor-Fc fusion
Experiment: as above

Binder	BMPRIb binding (relative to wild type = 1.0)
B1	0.74 relative to wild type
B2	1.36 relative to wild type
B3	0.98 relative to wild type
B4	0.64 relative to wild type
B5	0.81 relative to wild type
B6	0.8 relative to wild type
B7	2.86 relative to wild type
B8	3.95 relative to wild type
B9	0.27 relative to wild type
B10	1.01 relative to wild type
B11	0.57 relative to wild type
B12	0.52 relative to wild type
B13	0.22 relative to wild type
B14	3.65 relative to wild type
B15	1.63 relative to wild type
B16	0.85 relative to wild type
B17	0.65 relative to wild type
B18	1.09 relative to wild type
B19	2.78 relative to wild type
B20	0.46 relative to wild type
B21	3.74 relative to wild type
B22	1.52 relative to wild type
B23	2.03 relative to wild type
B24	2.23 relative to wild type
B25	0.55 relative to wild type
B26	2.81 relative to wild type
